US20260027179A1, “ANTI-SYNUCLEINOPATHY PEPTIDE AND METHODS TO TREAT NEURODEGENERATIVE DISEASES” (University of British Columbia, priority 2021, published 2026)

Assays:
[1] = target: T1, phosphorylated (pS129) α-synuclein (Homo sapiens, UniProt P37840, A53T); assay: PFF mouse model of spreading synucleinopathy, pS129 α-synuclein immunostaining; format: in vivo; conditions: PFF-injected M83 mice, 40 mg/kg i.p. over 20 days, at three months, vs Tat-βsyn group
T1 construct: tissue The Jackson Laboratory 004479; host or cells: coronal brain sections (substantia nigra, pons) of M83 mice injected with human α-synuclein PFFs
Method: M83 mice were injected intracerebrally (i.e.) into the right dorsal striatum with either 12.5 μg of α-synuclein pre-formed fibrils (PFFs) or PBS. Starting at 3 days prior to the PFF injection, mice were treated daily for 12 days with either Tat-βsyn or Tat-βsyn-degron peptide (40 mg/kg; i.p.) and once every other day for the subsequent 8 days (20 days in total, FIG. 5a). At the end of three months, coronal brain sections of the M83 mice were prepared and stained with antibodies against serine 129-phosphorylated α-synuclein (pS129syn), a marker of pathogenic synuclein aggregates, and Iba-1, a calcium-binding protein specifically expressed in macrophage and microglia as a marker of neuroinflammation.
PFFs were generated in-house based on the Volpicelli-Daley et al protocol. […] PFFs were characterized using a negative staining protocol and analyzed using an electron microscope. […] PFFs were visualized using a transmission electron microscope (FEI Tecnai 12 Bio Twin 120 kV TEM) coupled to a AMT XR80C CCD camera, and analyzed with ImageJ 1.5 and Matlab 2017b software. […]
Brains from M83 mice that received i.e. and i.p. injections were processed for immunohistochemistry. […] Coronal sections were analyzed using Fiji-ImageJ 1.5 software to detect the total area labeled with the peroxidase immunoreaction product. The results were analyzed using GraphPad Prism software.

α-synuclein = target: T2, α-synuclein (Mus musculus, UniProt O55042); assay: MPTP mouse model, α-synuclein immunoblotting of brain tissue; format: in vivo; conditions: MPTP mice, 6 μmol/kg i.p. twice a day for 12 days, immunoblot
T2 construct: tissue Charles River; host or cells: ventral midbrain and striatum of C57BL/6 mice
Method: C57BL/6 mice were i.p. injected with 30 mg/kg parkinsonian toxin MPTP (or saline as control), once per day for 5 consecutive days, to induce dopaminergic neuron damage. The effects of MPTP administration on mouse rotarod performance and damage to dopaminergic neurons were then analyzed 1 week after the last injection of MPTP. To determine the effect of α-synuclein knockdown in protecting dopaminergic neurons against MPTP, the Tat-βsyn-degron peptide or its control Tat-βsyn (6 μmol/kg; i.p.) was used in some animals twice a day for 12 days, beginning the first day of MPTP injection. […] The striatum is a region that receives dopaminergic neuronal projections from the substantia nigra and is also deeply affected in PD. […]
Brain tissues or cultured cells were lysed on ice in the lysis buffer and then the solution was centrifuged at 14,000 rpm for 10 min at 4° C. Next, the supernatant was collected and protein concentrations were determined using a BCA protein assay kit (Thermo Scientific, 23227). […] The band density of each protein was quantified by the Bio-Rad Quantity One software and the relative optical density was analyzed relative to the loading control β-actin on the same membrane.

With “YGRKKRRQRRRRTKSGVYLVGRRRG (The sequence is synthesized (YGRKKRRQRRRRTKSGVYLVGRRRG)) [Tat-βsyn-degron]” as the sequence, how does the “pS129syn staining in pons” value [1] read?
The value was “significantly reduced”.

And the “pS129syn staining in substantia nigra pars compacta” value [1]?
Its value is “significantly reduced”.

And the α-synuclein in striatum (α-synuclein)?
The α-synuclein in striatum was “induced significant α-synuclein degradation”.

And the “α-synuclein in substantia nigra-containing ventral midbrain” value (α-synuclein)?
The value was “induced significant α-synuclein degradation”.
